Source: US8026218 (UNIVERSITY OF ARIZONA, dated 2011)
Bridge positions count the residues as written; N and C are the ends. Square brackets hold non-standard residues; d marks the D form. Ends that are not written are not given here. * marks the point of attachment. NHBn(CF3)2 = C-terminal amide NH-Bn(CF3)2, a benzyl group carrying two CF3; NMe‑Bn(CF3)2 = C-terminal N-methyl bis(trifluoromethyl)benzyl amide; NH(3,5-(CF3)2-benzyl) = FC(F)(F)c1cc(CN*)cc(C(F)(F)F)c1; OBzl(3,5-(CF3)2) = FC(F)(F)c1cc(CO*)cc(C(F)(F)F)c1; NMe(benzyl) = CN(Cc1ccccc1)*; Nle = CCCC[C@H](N)C(=O)O; NHBn = c1ccc(CN*)cc1; OBn = c1ccc(CO*)cc1

B1: Tyr[DPenGlyPhePen]ProLeuTrpNHBn(CF3)2 (TY046) (peptide)
peptide: YXGFXPLW
modifications: D-Pen (D-penicillamine) at 2 (X); Pen (L-penicillamine) at 5 (X); disulfide 2-5 (cyclic); C-terminal NH-Bn(CF3)2 amide
B2: DmtDAlaGlyPheNleProLeuTrpNHBn(CF3)2 (TY050) (peptide)
peptide: YAGFXPLW
modifications: Dmt (2',6'-dimethyl-L-tyrosine) at 1; D-Ala at 2; Nle at 5 (X); C-terminal NH-3,5-Bn(CF3)2 amide
B3: DmtDAlaGlyPheNleProLeuTrpNHBn-2,4-(OMe)2 (TY054) (peptide)
peptide: YAGFXPLW
modifications: not fully specified; Dmt at 1; D-Ala at 2; Nle at 5 (X); C-terminal NH-Bn-2,4-(OMe)2 amide

Tests used:
human δ opioid receptor [1] = biological target: T1, human δ opioid receptor (human, UniProt P41143 1-372); assay: cell-based or functional assay
[2] = biological target: µ opioid receptor of the guinea pig isolated ileum (guinea pig, UniProt P97266 1-98); assay: cell-based or functional assay
guinea pig NK1 receptor = guinea pig NK1 receptor (guinea pig, UniProt P30547 1-407); assay: cell-based or functional assay
human δ opioid receptor [3] = biological target: T1, human δ opioid receptor; assay: radioligand competition vs [3H]DPDPE, membranes of hDOR cells
human NK1 receptor = biological target: T2, human NK1 receptor (human, UniProt P25103 1-407); assay: radioligand competition vs [3H]substance P, membranes of hNK1 CHO cells
T2 construct: whole, on cells; Used as membrane preparations of transfected CHO cells; also called hNK1; human neurokinin-1 receptor

rat µ opioid receptor [4] = biological target: T3, rat µ opioid receptor (rat, UniProt P33535 1-398); assay: radioligand competition vs [3H]DAMGO, membranes of rMOR cells
T3 construct: whole, on cells; Used as crude membrane preparations of the transfected cells; also called rMOR; MOR

rat µ opioid receptor [5] = biological target: T3, rat µ opioid receptor; assay: cell-based or functional assay
rat NK1 receptor = biological target: T4, rat NK1 receptor (rat, UniProt P14600 1-407); assay: radioligand competition vs [3H]substance P, membranes of rNK1 CHO cells
T4 construct: whole, on cells; Used as membrane preparations of transfected CHO cells; also called rNK1; rat neurokinin-1 receptor
T4 sequence (P14600 whole entry): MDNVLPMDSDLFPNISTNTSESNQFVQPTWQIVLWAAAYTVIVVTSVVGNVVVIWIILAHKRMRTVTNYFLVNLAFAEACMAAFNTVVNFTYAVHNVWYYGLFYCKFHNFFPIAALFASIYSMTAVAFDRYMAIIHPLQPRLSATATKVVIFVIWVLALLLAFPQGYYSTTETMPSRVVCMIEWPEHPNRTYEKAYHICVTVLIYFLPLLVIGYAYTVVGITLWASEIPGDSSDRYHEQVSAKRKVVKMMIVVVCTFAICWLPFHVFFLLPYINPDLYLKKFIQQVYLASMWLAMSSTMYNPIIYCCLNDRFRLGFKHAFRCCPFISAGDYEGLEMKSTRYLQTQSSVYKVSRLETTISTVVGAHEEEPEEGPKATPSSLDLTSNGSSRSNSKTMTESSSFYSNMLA

Chain of µ opioid receptor of the guinea pig isolated ileum (P97266 whole entry): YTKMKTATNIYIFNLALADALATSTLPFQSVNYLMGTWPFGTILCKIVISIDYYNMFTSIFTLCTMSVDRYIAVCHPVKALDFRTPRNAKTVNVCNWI
T3 sequence (P33535 whole entry): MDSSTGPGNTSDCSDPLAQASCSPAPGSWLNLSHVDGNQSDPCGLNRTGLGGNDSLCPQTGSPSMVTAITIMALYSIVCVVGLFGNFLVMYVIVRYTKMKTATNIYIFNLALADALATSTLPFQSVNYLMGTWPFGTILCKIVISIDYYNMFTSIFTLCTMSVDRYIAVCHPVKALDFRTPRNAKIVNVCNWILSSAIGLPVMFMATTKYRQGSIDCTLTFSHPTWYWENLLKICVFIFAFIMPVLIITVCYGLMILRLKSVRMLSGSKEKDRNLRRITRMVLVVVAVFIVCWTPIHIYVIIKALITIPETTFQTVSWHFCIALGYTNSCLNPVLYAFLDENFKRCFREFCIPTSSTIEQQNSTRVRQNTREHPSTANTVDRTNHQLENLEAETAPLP
T2 sequence (P25103 whole entry): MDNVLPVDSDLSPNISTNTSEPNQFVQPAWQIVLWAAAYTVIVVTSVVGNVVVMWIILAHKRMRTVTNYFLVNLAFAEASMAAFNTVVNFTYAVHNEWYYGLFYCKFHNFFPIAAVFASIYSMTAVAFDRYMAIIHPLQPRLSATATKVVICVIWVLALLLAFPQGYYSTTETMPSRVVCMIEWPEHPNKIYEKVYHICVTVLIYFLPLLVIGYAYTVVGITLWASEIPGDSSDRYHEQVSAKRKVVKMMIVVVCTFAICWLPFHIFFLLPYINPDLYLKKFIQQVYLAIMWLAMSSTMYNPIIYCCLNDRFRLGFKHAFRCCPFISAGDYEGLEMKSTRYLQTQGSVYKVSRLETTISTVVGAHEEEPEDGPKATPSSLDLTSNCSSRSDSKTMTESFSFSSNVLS
T1 sequence (P41143 whole entry, stated change not applied): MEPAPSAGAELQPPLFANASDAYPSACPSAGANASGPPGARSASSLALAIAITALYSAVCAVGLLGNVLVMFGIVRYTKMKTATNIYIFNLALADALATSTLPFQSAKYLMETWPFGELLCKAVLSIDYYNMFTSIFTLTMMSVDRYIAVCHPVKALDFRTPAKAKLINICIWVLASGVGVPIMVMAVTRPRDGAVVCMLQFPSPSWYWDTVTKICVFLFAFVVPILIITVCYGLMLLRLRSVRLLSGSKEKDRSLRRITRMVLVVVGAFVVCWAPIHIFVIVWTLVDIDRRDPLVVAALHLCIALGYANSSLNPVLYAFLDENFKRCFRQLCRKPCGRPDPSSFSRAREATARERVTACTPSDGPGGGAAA
Chain of guinea pig NK1 receptor (P30547 whole entry): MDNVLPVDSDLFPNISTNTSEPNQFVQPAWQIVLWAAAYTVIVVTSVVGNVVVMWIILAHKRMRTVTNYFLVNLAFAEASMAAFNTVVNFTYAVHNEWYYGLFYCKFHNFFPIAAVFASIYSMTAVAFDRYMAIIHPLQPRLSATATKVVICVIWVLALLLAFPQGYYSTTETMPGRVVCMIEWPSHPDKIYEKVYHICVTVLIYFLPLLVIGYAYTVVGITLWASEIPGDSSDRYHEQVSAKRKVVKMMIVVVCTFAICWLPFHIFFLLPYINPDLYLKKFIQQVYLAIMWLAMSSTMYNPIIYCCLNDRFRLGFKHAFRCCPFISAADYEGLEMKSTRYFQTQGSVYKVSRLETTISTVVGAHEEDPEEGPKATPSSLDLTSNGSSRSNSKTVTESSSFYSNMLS

| Binder | Ki (human δ opioid receptor [3]) [nM] | Ki (human NK1 receptor) [nM] | Ki (rat NK1 receptor) [nM] | also measured |
| --- | --- | --- | --- | --- |
| YAGFXPLW (D-Ala at 2; Nle at 5 (X); C-terminal NH-Bn(CF3)2 amide) [TyrDAlaGlyPheNleProLeuTrpNHBn(CF3)2 (TY045)] | 1 | 0.0028 | – | GTP binding hDOR EC50 (human δ opioid receptor [1]): 5 nM; GTP binding hDOR Emax (human δ opioid receptor [1]): 125%; GPI/LMMP opioid(mu) agonist IC50 [2]: 463 nM; GPI/LMMP SP antagonist Ke (guinea pig NK1 receptor): 40.8 nM |
| B1 | 1.7 | 0.0053 | – | GTP binding hDOR EC50 (human δ opioid receptor [1]): 17.2 nM; GTP binding hDOR Emax (human δ opioid receptor [1]): 15%; Ki (rat µ opioid receptor [4]): 2330 nM |
| Y[dA]GFM[dP]LW-{OBzl(3,5-(CF3)2)} [TyrDAlaGlyPheMetDProLeuTrpOBn(CF3)2 (TY024)] | 13.2 | – | – | GTP binding rMOR EC50 (rat µ opioid receptor [5]): 123 nM; GTP binding rMOR Emax (rat µ opioid receptor [5]): 28% |
| Y[dC]GF[dC]PLW-{NH(3,5-(CF3)2-benzyl)} (disulfide 2-5) [Tyr[DCysGlyPheDCys]ProLeuTrpNHBn(CF3)2 (TY037)] | – | – | – | GPI/LMMP opioid(mu) agonist IC50 [2]: 284 nM; GPI/LMMP SP antagonist Ke (guinea pig NK1 receptor): 4.7 nM |
| Y[dC]GF[Nle]P[dC]W-{NH(3,5-(CF3)2-benzyl)} (disulfide 2-7) [Tyr[DCysGlyPheNleProDCys]TrpNHBn(CF3)2 (TY038)] | – | – | – | GPI/LMMP opioid(mu) agonist IC50 [2]: 3 % at 1 uM; GPI/LMMP SP antagonist Ke (guinea pig NK1 receptor): 12 nM |
| YXGFXPLW (D-Pen at 2 and 5 (X); disulfide 2-5 (cyclic); C-terminal NH-Bn(CF3)2 amide) [Tyr[DPenGlyPheDPen]ProLeuTrpNHBn(CF3)2 (TY049)] | – | 0.18 | 4.54 | GTP binding rMOR Emax (rat µ opioid receptor [5]): 25%; Ki (rat µ opioid receptor [4]): 2050 nM |
| Y[dA]GFPLW-{OBzl(3,5-(CF3)2)} [TyrDAlaGlyPheProLeuTrpOBn(CF3)2 (TY001)] | – | 0.0023 | – | – |
| Y[dA]GFPLW-NHBn [TyrDAlaGlyPheProLeuTrpNHBn (TY008)] | – | 14 | 803 | – |
| Y[dA]GFPLW-{NMe(benzyl)} [TyrDAlaGlyPheProLeuTrpNMeBn (TY010)] | – | 100 | 267 | – |
| Y[dA]GFPLW-OBn [TyrDAlaGlyPheProLeuTrpOBn (TY011)] | – | – | 659 | – |
| Y[dA]GFPLW-{NH(3,5-(CF3)2-benzyl)} [TyrDAlaGlyPheProLeuTrpNHBn(CF3)2 (TY012)] | – | 0.61 | 32.6 | – |
| Y[dA]GFPLW-{NMe‑Bn(CF3)2} [TyrDAlaGlyPheProLeuTrpNMeBn(CF3)2 (TY013)] | – | – | 6.05 | – |
| MPLW-{OBzl(3,5-(CF3)2)} [MetProLeuTrpOBn(CF3)2 (TY036)] | 1280 | – | 0.99 | Ki (rat µ opioid receptor [4]): 4550 nM |
| Y[dA]GFM-NH2 [TyrDAlaGlyPheMetNH2 (TY040)] | – | 145 | 1100 | – |
| B2 | – | 0.075 | – | – |
| MPLW-{NHBn(CF3)2} [MetProLeuTrpNHBn(CF3)2 (TY051)] | – | 0.922 | 62 | Ki (rat µ opioid receptor [4]): 866 nM |
| YAGFXPLW (Dmt at 1; D-Ala at 2; Nle at 5 (X); C-terminal NMe-3,5-Bn(CF3)2 amide) [DmtDAlaGlyPheNleProLeuTrpNMeBn(CF3)2 (TY052)] | 0.46 | 0.21 | – | – |
| YAGFXPLW (Dmt at 1; D-Ala at 2; Nle at 5 (X); C-terminal NH-Bn-3-(CF3) amide) [DmtDAlaGlyPheNleProLeuTrpNHBn-3-(CF3) (TY053)] | 4.1 | 1.04 | – | – |
| B3 | 0.15 | 0.952 | – | – |
